This is an account of results in the supplement of paper PMC9112550, “Optimization of the antimicrobial peptide Bac7 by deep mutational scanning” (BMC Biology, 2022).

The subject of the data set is Escherichia coli TOP10. The experiment in a line: shrunken log2 fold change of peptide-encoding DNA abundance (4.5 h post-induction vs induction); higher = less antimicrobial activity (less host growth inhibition). Particulars: time post-induction: 4.5 h; library: site-saturation at positions 5, 18, 19, 20.
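Further: peptides expressed intracellularly from a pBAD plasmid library in pooled LB shake-flask culture, induced with 0.3% L-arabinose, DNA abundance read by NGS, three biological replicates, DESeq2 with apeglm shrinkage.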

Consider RRIRMRPPRLPRPRPRPSRGPRP, for which the “shrunken log2 fold change” value worked out at 0.732.

In the case of RRIRCRPPRLPRPRPRPDPNPRP, the “shrunken log2 fold change” value is -0.00486.

As for RRIRFRPPRLPRPRPRPSNMPRP, the “shrunken log2 fold change” value is -0.935.

Consider RRIRYRPPRLPRPRPRPFVLPRP, for which the “shrunken log2 fold change” value was -0.855.

Regarding RRIRLRPPRLPRPRPRPYVLPRP, the “shrunken log2 fold change” value was -0.0278.

Consider RRIRRRPPRLPRPRPRPFHYPRP, for which the “shrunken log2 fold change” value was -0.259.

As for RRIRFRPPRLPRPRPRPERQPRP, the “shrunken log2 fold change” value is -0.000475.

With RRIRTRPPRLPRPRPRPVNNPRP, the “shrunken log2 fold change” value was -0.0819.

RRIRKRPPRLPRPRPRPMQFPRP: the “shrunken log2 fold change” value is 0.105.

As for RRIRVRPPRLPRPRPRPDTVPRP, the “shrunken log2 fold change” value is -0.186.

Regarding RRIRSRPPRLPRPRPRPVLCPRP, the “shrunken log2 fold change” value is -0.00306.

As to RRIRLRPPRLPRPRPRPIIAPRP, the “shrunken log2 fold change” value is -0.0536.

For the sequence RRIRDRPPRLPRPRPRPHCNPRP, the “shrunken log2 fold change” value is -0.226.

As for RRIRHRPPRLPRPRPRPAWAPRP, the “shrunken log2 fold change” value came to 0.48.

Take RRIRIRPPRLPRPRPRPDGMPRP: the “shrunken log2 fold change” value is -0.06.

On to RRIRYRPPRLPRPRPRPHKFPRP, for which the “shrunken log2 fold change” value is -0.609.

Take RRIRIRPPRLPRPRPRPLTLPRP: the “shrunken log2 fold change” value is -0.22.

In the case of RRIRSRPPRLPRPRPRPTCIPRP, the “shrunken log2 fold change” value is 0.0869.

Consider RRIRNRPPRLPRPRPRPHMAPRP, for which the “shrunken log2 fold change” value was -0.401.

On to RRIRMRPPRLPRPRPRPKVQPRP, for which the “shrunken log2 fold change” value came to 1.85.

On to RRIRRRPPRLPRPRPRPLVHPRP, for which the “shrunken log2 fold change” value amounted to 0.223.

Take RRIRMRPPRLPRPRPRPVLKPRP: the “shrunken log2 fold change” value was determined as 0.072.

As to RRIRIRPPRLPRPRPRPLYAPRP, the “shrunken log2 fold change” value was -0.651.

On to RRIRYRPPRLPRPRPRPWWTPRP, for which the “shrunken log2 fold change” value was -0.333.

In the case of RRIRTRPPRLPRPRPRPTWLPRP, the “shrunken log2 fold change” value was 0.511.

Take RRIRWRPPRLPRPRPRPFVMPRP: the “shrunken log2 fold change” value was -1.01.

Take RRIRRRPPRLPRPRPRPQTMPRP: the “shrunken log2 fold change” value amounted to 0.0791.

In the case of RRIRMRPPRLPRPRPRPHHSPRP, the “shrunken log2 fold change” value was -0.236.

With RRIRIRPPRLPRPRPRPVCAPRP, the “shrunken log2 fold change” value was -0.0399.

On to RRIRVRPPRLPRPRPRPEAFPRP, for which the “shrunken log2 fold change” value was 0.143.

Consider RRIRNRPPRLPRPRPRPQAEPRP, for which the “shrunken log2 fold change” value is -0.155.

In the case of RRIRIRPPRLPRPRPRPHLVPRP, the “shrunken log2 fold change” value was -0.573.

On to RRIRRRPPRLPRPRPRPCRQPRP, for which the “shrunken log2 fold change” value was 0.0284.

Turning to RRIRKRPPRLPRPRPRPHTFPRP, the “shrunken log2 fold change” value was -0.309.

As to RRIRHRPPRLPRPRPRPREQPRP, the “shrunken log2 fold change” value is 0.628.

Consider RRIRYRPPRLPRPRPRPWSRPRP, for which the “shrunken log2 fold change” value is -0.205.

Consider RRIRERPPRLPRPRPRPICYPRP, for which the “shrunken log2 fold change” value was -0.4.

Consider RRIRDRPPRLPRPRPRPHQQPRP, for which the “shrunken log2 fold change” value was -0.0346.

Turning to RRIRPRPPRLPRPRPRPCSCPRP, the “shrunken log2 fold change” value was -0.516.

As for RRIRKRPPRLPRPRPRPVKLPRP, the “shrunken log2 fold change” value was -0.0408.

For the sequence RRIRQRPPRLPRPRPRPFSFPRP, the “shrunken log2 fold change” value was -0.272.

For RRIRHRPPRLPRPRPRPHHFPRP, the “shrunken log2 fold change” value was -0.0916.

Regarding RRIRVRPPRLPRPRPRPHDHPRP, the “shrunken log2 fold change” value is -0.244.

For the sequence RRIRCRPPRLPRPRPRPGLGPRP, the “shrunken log2 fold change” value was 0.512.

Take RRIRGRPPRLPRPRPRPGKHPRP: the “shrunken log2 fold change” value came to 0.384.

On to RRIRRRPPRLPRPRPRPSCKPRP, for which the “shrunken log2 fold change” value was -0.398.

For the sequence RRIRARPPRLPRPRPRPPFYPRP, the “shrunken log2 fold change” value came out at 0.14.

Turning to RRIRWRPPRLPRPRPRPGHPPRP, the “shrunken log2 fold change” value was 0.0932.

With RRIRQRPPRLPRPRPRPYPPPRP, the “shrunken log2 fold change” value was -0.357.

As to RRIRYRPPRLPRPRPRPEICPRP, the “shrunken log2 fold change” value is 0.0682.

Consider RRIRKRPPRLPRPRPRPHHHPRP, for which the “shrunken log2 fold change” value is -0.208.

Turning to RRIRPRPPRLPRPRPRPRQPPRP, the “shrunken log2 fold change” value turned out to be 0.113.

As to RRIRARPPRLPRPRPRPGLVPRP, the “shrunken log2 fold change” value worked out at 0.542.

As for RRIRGRPPRLPRPRPRPPTVPRP, the “shrunken log2 fold change” value stood at 1.12.

As for RRIRFRPPRLPRPRPRPFLYPRP, the “shrunken log2 fold change” value was -1.04.

For RRIRNRPPRLPRPRPRPNLQPRP, the “shrunken log2 fold change” value is -0.446.

Take RRIRSRPPRLPRPRPRPKVVPRP: the “shrunken log2 fold change” value worked out at 0.00912.

As to RRIRWRPPRLPRPRPRPTHNPRP, the “shrunken log2 fold change” value was 0.0181.

Consider RRIRGRPPRLPRPRPRPQCFPRP, for which the “shrunken log2 fold change” value came out at 0.352.

Turning to RRIRHRPPRLPRPRPRPVDVPRP, the “shrunken log2 fold change” value is -0.119.

Turning to RRIRGRPPRLPRPRPRPHKFPRP, the “shrunken log2 fold change” value is 0.151.

As to RRIRRRPPRLPRPRPRPYLQPRP, the “shrunken log2 fold change” value was -0.548.

Regarding RRIRARPPRLPRPRPRPTQIPRP, the “shrunken log2 fold change” value was 0.553.

For the sequence RRIRSRPPRLPRPRPRPLPYPRP, the “shrunken log2 fold change” value was -0.25.

For RRIRVRPPRLPRPRPRPTLVPRP, the “shrunken log2 fold change” value is 0.0318.

Consider RRIRDRPPRLPRPRPRPDWVPRP, for which the “shrunken log2 fold change” value came to 0.0881.

Turning to RRIRQRPPRLPRPRPRPLPLPRP, the “shrunken log2 fold change” value was -0.287.

For the sequence RRIRSRPPRLPRPRPRPENTPRP, the “shrunken log2 fold change” value is -0.258.

Consider RRIRWRPPRLPRPRPRPNFDPRP, for which the “shrunken log2 fold change” value was -0.0228.

For the sequence RRIRPRPPRLPRPRPRPMPKPRP, the “shrunken log2 fold change” value came to 0.409.

RRIRLRPPRLPRPRPRPADDPRP: the “shrunken log2 fold change” value is -0.088.

Regarding RRIRCRPPRLPRPRPRPEYFPRP, the “shrunken log2 fold change” value is -0.0582.

For RRIRMRPPRLPRPRPRPEQWPRP, the “shrunken log2 fold change” value is 0.184.

RRIRVRPPRLPRPRPRPMDNPRP: the “shrunken log2 fold change” value came to 0.0397.

Regarding RRIRYRPPRLPRPRPRPEVMPRP, the “shrunken log2 fold change” value was found to be 0.00902.

With RRIRCRPPRLPRPRPRPWVIPRP, the “shrunken log2 fold change” value was -0.11.

In the case of RRIRVRPPRLPRPRPRPFLRPRP, the “shrunken log2 fold change” value was -0.563.

On to RRIRDRPPRLPRPRPRPNKFPRP, for which the “shrunken log2 fold change” value was -0.293.

For RRIRRRPPRLPRPRPRPNNTPRP, the “shrunken log2 fold change” value is 0.00573.

With RRIRVRPPRLPRPRPRPQMQPRP, the “shrunken log2 fold change” value was -0.325.

Turning to RRIRIRPPRLPRPRPRPLYGPRP, the “shrunken log2 fold change” value was -0.702.

As for RRIRWRPPRLPRPRPRPNFIPRP, the “shrunken log2 fold change” value was -0.174.

With RRIRPRPPRLPRPRPRPQYVPRP, the “shrunken log2 fold change” value is -0.184.

RRIRSRPPRLPRPRPRPPEFPRP: the “shrunken log2 fold change” value was -0.119.

As for RRIRDRPPRLPRPRPRPKIWPRP, the “shrunken log2 fold change” value is 0.127.

As for RRIRSRPPRLPRPRPRPFTLPRP, the “shrunken log2 fold change” value is -0.163.

With RRIRWRPPRLPRPRPRPFQMPRP, the “shrunken log2 fold change” value is -0.692.

As to RRIRFRPPRLPRPRPRPFQEPRP, the “shrunken log2 fold change” value was -0.00353.

With RRIRIRPPRLPRPRPRPFGPPRP, the “shrunken log2 fold change” value is -0.189.

Take RRIRGRPPRLPRPRPRPYYRPRP: the “shrunken log2 fold change” value is -0.0655.

Take RRIRRRPPRLPRPRPRPTFTPRP: the “shrunken log2 fold change” value worked out at 0.128.

As to RRIRSRPPRLPRPRPRPRRTPRP, the “shrunken log2 fold change” value was 0.183.

RRIRIRPPRLPRPRPRPYGSPRP: the “shrunken log2 fold change” value is -0.126.

As for RRIRTRPPRLPRPRPRPCQWPRP, the “shrunken log2 fold change” value is -0.107.

Regarding RRIRWRPPRLPRPRPRPGWKPRP, the “shrunken log2 fold change” value was 0.0668.

With RRIRQRPPRLPRPRPRPMGYPRP, the “shrunken log2 fold change” value was -0.655.

As to RRIRVRPPRLPRPRPRPGMEPRP, the “shrunken log2 fold change” value came to 0.232.

As to RRIRCRPPRLPRPRPRPYRTPRP, the “shrunken log2 fold change” value was -0.132.

As to RRIRDRPPRLPRPRPRPFASPRP, the “shrunken log2 fold change” value is -0.0205.

Regarding RRIRHRPPRLPRPRPRPYPEPRP, the “shrunken log2 fold change” value is -0.267.

On to RRIRMRPPRLPRPRPRPMRLPRP, for which the “shrunken log2 fold change” value is 0.416.

Take RRIRYRPPRLPRPRPRPNVGPRP: the “shrunken log2 fold change” value was -0.00664.

Regarding RRIRFRPPRLPRPRPRPYIKPRP, the “shrunken log2 fold change” value is -1.28.

Turning to RRIRWRPPRLPRPRPRPQAQPRP, the “shrunken log2 fold change” value stood at 0.00496.

Regarding RRIRYRPPRLPRPRPRPHLIPRP, the “shrunken log2 fold change” value was -0.103.

Consider RRIRQRPPRLPRPRPRPQPNPRP, for which the “shrunken log2 fold change” value was 0.26.

As to RRIRWRPPRLPRPRPRPTWVPRP, the “shrunken log2 fold change” value stood at 0.688.

Regarding RRIRFRPPRLPRPRPRPCYEPRP, the “shrunken log2 fold change” value was -0.228.

Regarding RRIRKRPPRLPRPRPRPGGCPRP, the “shrunken log2 fold change” value was 0.809.

Consider RRIRCRPPRLPRPRPRPMCMPRP, for which the “shrunken log2 fold change” value was -0.232.

Take RRIRYRPPRLPRPRPRPEEHPRP: the “shrunken log2 fold change” value came out at 0.0203.

As to RRIRGRPPRLPRPRPRPFHDPRP, the “shrunken log2 fold change” value was -0.0838.

For the sequence RRIRKRPPRLPRPRPRPFVEPRP, the “shrunken log2 fold change” value was determined as 0.0241.

As for RRIRKRPPRLPRPRPRPSAVPRP, the “shrunken log2 fold change” value amounted to 0.0941.

Take RRIRCRPPRLPRPRPRPFAMPRP: the “shrunken log2 fold change” value is -0.495.

Take RRIRWRPPRLPRPRPRPCWLPRP: the “shrunken log2 fold change” value is -0.119.

In the case of RRIRIRPPRLPRPRPRPNSPPRP, the “shrunken log2 fold change” value is 0.00971.

As for RRIRMRPPRLPRPRPRPVATPRP, the “shrunken log2 fold change” value came out at 1.64.

With RRIRGRPPRLPRPRPRPREGPRP, the “shrunken log2 fold change” value was 1.42.

On to RRIRWRPPRLPRPRPRPTQQPRP, for which the “shrunken log2 fold change” value was -0.0891.

Take RRIRMRPPRLPRPRPRPIGIPRP: the “shrunken log2 fold change” value was -0.0706.

On to RRIRERPPRLPRPRPRPKRGPRP, for which the “shrunken log2 fold change” value was found to be 0.385.

For RRIRPRPPRLPRPRPRPGYPPRP, the “shrunken log2 fold change” value is -0.0289.

For the sequence RRIRDRPPRLPRPRPRPMSAPRP, the “shrunken log2 fold change” value was -0.177.

As to RRIRERPPRLPRPRPRPCWTPRP, the “shrunken log2 fold change” value stood at 0.0421.
